Article PMC4768490 (Structure (London, England : 1993), 2015)

T1: Kap60 lacking the IBB (ΔIBB-Kap60) (S. cerevisiae, UniProt Q02821 88-509)
T1 sequence: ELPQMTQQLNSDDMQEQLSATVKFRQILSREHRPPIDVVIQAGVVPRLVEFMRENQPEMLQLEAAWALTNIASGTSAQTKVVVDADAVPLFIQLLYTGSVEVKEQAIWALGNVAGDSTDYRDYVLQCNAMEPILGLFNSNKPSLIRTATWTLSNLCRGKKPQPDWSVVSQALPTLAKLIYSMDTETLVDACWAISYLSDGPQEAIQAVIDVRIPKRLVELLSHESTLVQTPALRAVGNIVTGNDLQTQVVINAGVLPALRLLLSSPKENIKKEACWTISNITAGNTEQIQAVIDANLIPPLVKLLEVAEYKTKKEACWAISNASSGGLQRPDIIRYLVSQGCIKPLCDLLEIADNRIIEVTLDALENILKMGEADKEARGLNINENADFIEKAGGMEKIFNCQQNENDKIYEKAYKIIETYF


How the values were obtained:
[1] = target: Kap60 lacking the IBB (ΔIBB-Kap60) (S. cerevisiae) (UniProt Q02821); assay: ITC
[2] = target: T1, Kap60 lacking the IBB (ΔIBB-Kap60); assay: pull-down
[3] = target: T1, Kap60 lacking the IBB (ΔIBB-Kap60); assay: ITC

Molecule	Kd [3]	other results
nucleoplasmin bipartite NLS (NP-NLS), control (peptide)		Kd [1]: 46 nM
MBP-Nup2 (res. 1-51) (domain or fragment, S. cerevisiae, UniProt P32499 1-51, looked up) MAKRVADAQIQRETYDSNESDDDVTPSTKVASSAVMNRRKIAMPKRRMAFK		percent of the ΔIBB-Kap60:h2NLS complex dissociated at 10-fold excess of Nup2 [2]: 60%
MBP-tagged h1NLS (MBP-h1NLS), wild type (peptide, UniProt Q03707 171-221, looked up) DTRKKRKDPDSDDWSESNSKENKIDNKHLNLLSSDSEIEQDYQKAKKRKTS	30.5 ± 10 nM	
MBP-h1NLS with Ala-mutation at position P2 (K190A) (peptide, UniProt Q03707 171-221, looked up) DTRKKRKDPDSDDWSESNSAENKIDNKHLNLLSSDSEIEQDYQKAKKRKTS	68.6 ± 14 nM	
MBP-h1NLS with Ala-mutations at positions P2' and P2 (R176A, K190A) (peptide, UniProt Q03707 171-221, looked up) DTRKKAKDPDSDDWSESNSAENKIDNKHLNLLSSDSEIEQDYQKAKKRKTS	140 ± 26 nM	
MBP-h1NLS with Ala-mutation at position P2' (R176A) (peptide, UniProt Q03707 171-221, looked up) DTRKKAKDPDSDDWSESNSKENKIDNKHLNLLSSDSEIEQDYQKAKKRKTS	123 ± 8.6 nM	
TNKRKREQISTDNEAKMQIQEEKSPKKKRKKRSSKANK (peptide, UniProt Q03281 100-137, looked up) [MBP-tagged h2NLS (MBP-h2NLS), wild type]	27.3 ± 8 nM	
TNKRKREQISTDNEAKMQIQEEKSPKAKRKKRSSKANK (peptide, UniProt Q03281 100-137, looked up) [MBP-h2NLS with Ala-mutation at position P2 (K126A)]	106 ± 15 nM	

Continued, in another order:

Kd [3]	Molecule	other results
168 ± 32 nM	TNKAKREQISTDNEAKMQIQEEKSPKAKRKKRSSKANK (peptide, UniProt Q03281 100-137, looked up) [MBP-h2NLS with Ala-mutations at positions P2' and P2 (R103A, K126A)]	
132 ± 27 nM	TNKAKREQISTDNEAKMQIQEEKSPKKKRKKRSSKANK (peptide, UniProt Q03281 100-137, looked up) [MBP-h2NLS with Ala-mutation at position P2' (R103A)]	
